This is an account of results in patent US20230365705A1 (DYNAMICURE BIOTECHNOLOGY, published 2023).

T1: Human CD93 on cells (human CD93 expressing CHO cells; HUVEC, U937 and KG1a cells) (human, UniProt Q9NPY3 22-652)
T1 construct: whole, on cells; also called hCD93 expressing CHO cells; hCD93 CHO cells
T1 sequence (looked up): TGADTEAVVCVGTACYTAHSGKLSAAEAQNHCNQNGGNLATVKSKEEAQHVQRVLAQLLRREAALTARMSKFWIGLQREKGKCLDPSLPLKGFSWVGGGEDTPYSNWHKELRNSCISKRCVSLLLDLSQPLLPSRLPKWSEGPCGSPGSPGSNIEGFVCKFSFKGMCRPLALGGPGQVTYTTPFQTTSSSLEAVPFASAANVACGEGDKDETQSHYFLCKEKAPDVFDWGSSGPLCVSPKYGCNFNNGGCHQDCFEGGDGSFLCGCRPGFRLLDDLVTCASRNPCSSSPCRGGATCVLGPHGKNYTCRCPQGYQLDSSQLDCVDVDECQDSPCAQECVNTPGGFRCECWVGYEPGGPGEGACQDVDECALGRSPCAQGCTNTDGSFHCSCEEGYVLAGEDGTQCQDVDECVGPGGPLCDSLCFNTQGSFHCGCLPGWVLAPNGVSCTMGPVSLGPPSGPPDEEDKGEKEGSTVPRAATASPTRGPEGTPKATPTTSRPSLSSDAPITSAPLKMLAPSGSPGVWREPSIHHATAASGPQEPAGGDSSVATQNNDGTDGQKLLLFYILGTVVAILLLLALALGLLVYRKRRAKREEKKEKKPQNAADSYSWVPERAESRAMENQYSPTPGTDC

T2: Human CD93 recombinant protein (Sino Biological Inc, Catalog #12589-H08H) (human, UniProt Q9NPY3 22-580)
T2 construct: Biotinylated (EZ-LINK NHS-PEG4 biotin) in the BLI assays; also called hCD93; His-tagged human CD93
T2 sequence (looked up): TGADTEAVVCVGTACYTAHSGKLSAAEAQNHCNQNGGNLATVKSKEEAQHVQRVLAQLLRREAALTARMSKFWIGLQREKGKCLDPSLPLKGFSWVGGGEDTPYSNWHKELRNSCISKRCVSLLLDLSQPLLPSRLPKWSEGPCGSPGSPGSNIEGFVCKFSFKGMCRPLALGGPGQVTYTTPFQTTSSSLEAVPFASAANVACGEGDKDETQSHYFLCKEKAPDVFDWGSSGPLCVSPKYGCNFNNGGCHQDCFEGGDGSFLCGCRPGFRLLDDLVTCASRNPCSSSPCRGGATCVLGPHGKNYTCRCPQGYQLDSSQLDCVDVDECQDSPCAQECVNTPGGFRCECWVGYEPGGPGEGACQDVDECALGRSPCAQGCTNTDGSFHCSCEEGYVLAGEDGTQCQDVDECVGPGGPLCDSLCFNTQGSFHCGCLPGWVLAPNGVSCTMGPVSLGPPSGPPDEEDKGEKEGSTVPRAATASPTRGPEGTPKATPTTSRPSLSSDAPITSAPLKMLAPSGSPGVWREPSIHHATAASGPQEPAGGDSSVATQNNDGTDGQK

B1: 12H4 (antibody, V domains shown)
VH: EVQLQQSGPELVKPGASVKVSCKASGYTFTDYYIHWVKQRPGQGLEWIGEIYPGSDDAYYNEKFKGKATLTADKSSSTAYMQLSSLTSEDSAVYFCTRETTATAYWGQGTLVTVSA
VL: QIVLTQSPAIMSASPGEKVTITCSASSSVSLIYWFQQKPGTSPKLWIYSTSNLASGVPARFSGSGSGTSYSLTISRMEAEDAATYYCQQRSGYPPTFGGGTKLEIK
notes: Mouse hybridoma monoclonal antibody
B2: 19E12 (antibody, V domains shown)
VH: QVQLQQSGAELVRPGASVKLSCKASGYTFTDYEMHWVRQTPVHGLEWIGGIDPETGGTAYNQKFKGKATLTADKSSSTAYMELRSLTSEDSAVYYCTRGAWFAYWGQGTLVTVSA
VL: QAVVTQESALTTSPGETVTLTCRSSTGAVTTSNSANWVQEKPDHLFTGLIGGTNNRAPGVPARFSGSLIGDKAALTITGAQTEDEAIYFCALWYNNHFVFGGGTKLTVL
notes: as for B1
B3: 16B6 (antibody, V domains shown)
VH: QVQLQQSGPELVKPGASVKISCKASGYAFSRSWMNWVKQRPGKGLEWIGWIYPGDGDTNYNGKFKGKATLTADKSSSTAYMQLSSLTSEDSAAYFCARSATLPYWYFDVWGAGTTVTVSS
VL: DIKMTQSPSSMYASLGERVTITCKASQDIKSYLSWYQQKPWKSPKTLIYYATNLADGVPSRFSGSGSGQDYSLTISSLGSDDTATYYCLQHVESPWTFGGGTKLEIK
notes: as for B1
B4: 17E6 (antibody, V domains shown)
VH: EVQLQQSGPELVKPGASVKMSCKASGYTFTSYVIHWVKQKPGQGLEWIGYINPYSDYTQYNEKFKGKATLTSDKSSSTAYMELSSLTSEDSAVYSCARRADGNPYAMDYWGQGTSVTVSS
VL: DIVMTQSHKFMSTSVGDRVSTTCKASQDVSTAVVWYQQKPGQSPKLLIYSASYRYTGVPDRFTGSGSGTDFTFTITSVQAEDLAVYYCQQHYSTPFTFGSGTKLEIK
notes: as for B1
B5: 20C7 (antibody, V domains shown)
VH: B4 VH with K13N, S31A, I34M, N52F, S55N, Y57G, Q59E, S95Y, A100T, A106T
VL: B4 VL with T21I, V34A, Y49H, S65R, T76S
notes: as for B1
B6: 19B5 (antibody, V domains shown)
VH: DVNLVESGGGLVKLGGSLKLSCAASGFTFSNYYMSWVRQSPEKRLEWVATISNNGDSTYYLDTVKGRFTISRDSAENTLYLQMSSLISEDTAVYYCTRVGTGFTYWGQGTLVTVSA
VL: DIVLTQSPATLSVTPGDSVSLSCRASQSINNYLHWYQQRSHESPRLLIKFASQSISDIPSRFSGSGSGTDFTLSINSIETEDFGMYFCQQSNSWPLTFGAGTKLELK
notes: as for B1
B7: 5H9 (antibody, IgG2a, V domains shown)
VH: QVQLQQSGPDLVKPGASVKISCKASGYAFSTYWMNWVKQRPGKGLEWIGRIFPGDGDANYNGKFKGKATLTADKSSSTAYMQLSSLTSEDSAVYFCTRTGAAYDFDPFPYWGQGTLVTVSA
VL: DIVMTQAAFSNPVTLGTSASISCSSSKSLLHSNGVTYLYWYLQRPGQSPQLLIYRMSNLASGVPDRFSGSGSGTDFTLRISRVEAEDVGIYYCAQMLERPFTFGSGTKLEIK
notes: also called 5H9 mIgG2a
B8: 17A7 (antibody, V domains shown)
VH: B7 VH with D10E, A24G, A58T, N59D, N61D, S77N, T97A, D104E
VL: B7 VL with S26T, N33S, V35I, I90V
notes: as for B1
B9: 16G9 (antibody, V domains shown)
VH: EVQLQQSGPELVKPGASVKMSCKASGYTFTDYYMNWVKQSHGKSLEWIGRVNPNNGGKTYNQKFKGKATLTVDKSLSTAYMQLNSLTSEDSAVYYCARWRLRPVDYGMDYWGQGTSVTVSS
VL: DIVLTQSPASLAVSLGQRATISCRASQSVSTSSYSYMHWYQQKPGQPPKLLIKYASNLESGVPARFSGSGSGTDFTLNIHPVEEEDTATYYCQHSWEIPFTFGSGTKLEIK
notes: as for B1
B10: humanized 17B10 H1L1 (antibody, mouse IgG1, V domains shown)
VH: QVQLVQSGAEVKKPGSSVKVSCKASGYAFSSYWLNWVRQAPGQGLEWFGRIYPGDGDTDYNGKFKGRVTLTADKSTSTAYMELSSLRSEDTAVYFCVRGDGYWAMDYWGQGTTVTVSS
VL: DIVMTQSPLSLPVTPGEPASISCRFSQSLLHSNGITYLYWYLQKPGQSPQLLIYQMSNLASGVPDRFSGSGSGTDFTLKISRVEAEDVGVYYCAQNLELPWTFGGGTKLEIK
notes: Chimeric Fc: human CH1, mouse IgG1 CH2 and CH3
B11: humanized 17B10 H3L1 (antibody, mouse IgG1, V domains shown)
VH: QVQLVQSGPEVKKPGESLKISCKASGYAFSSYWLNWVRQMPGKGLEWMGRIYPGDGDTDYNGKFKGQVTISADKSSGTAYLQLSSLKASDTAVYFCVRGDGYWAMDYWGQGTLVTVSS
VL: B10 VL
notes: as for B10
B12: humanized 17B10 H2L3 (antibody, mouse IgG1, V domains shown)
VH: QVQLVQSGAEVVKSGASVKVSCKASGYAFSSYWLNWVRQAPGQGLEWFGRIYPGDGDTDYNGKFKGRVTLIRDTSTSTVYMELTSLTSEDTAVYYCVRGDGYWAMDYWGQGTLVTVSS
VL: DIVMTQSPDSLAVSLGERATINCRFSKSLLHSNGITYLYWYQQKPGQPPKLLIYQMSNLASGVPDRFSGSGSGTDFTLTISSLQAEDVAVYYCAQNLELPWTFGGGTKLEIK
notes: as for B10
B13: humanized 17B10 H1L2 (antibody, mouse IgG1, V domains shown)
VH: B10 VH
VL: B10 VL with S7T, Q55T
notes: as for B10
B14: humanized 17B10 H1L3 (antibody, mouse IgG1, V domains shown)
VH: B10 VH
VL: B12 VL
notes: as for B10
B15: humanized 17B10 H2L1 (antibody, mouse IgG1, V domains shown)
VH: B12 VH
VL: B10 VL
notes: as for B10

Where a chain is given by its changes, count along the chain named.

The target in one assay is T1, Human CD93 on cells (human CD93 …). Put plainly: flow cytometry, CD93 expressing CHO cells, antibody 10 ug/ml, FITC-A. Here is the method: Human CD93 expressing CHO cells were detached by incubation with TrypLE reagents (Thermos Fisher), which preserves the integrity of CD93 on the cell surface. […] After washing with FACS buffer twice, the samples were acquired in NovoCyte Flow Cytometer and analyzed by NovoExpress software.
(A flow cytometer gives signals particle by particle.)
Turning to B1, the binding result was “binds”.
Same read-out and setting: the same measure for B2: “binds”; for B3: “binds”; for B4: “binds”.
On the same count and under the same terms, next, B5: “binds”; B6: “binds”.
On the same count and under the same terms, next, B7: “binds”; B8: “binds”; B9: “binds”.

The target in the next assay is T2, Human CD93 recombinant protein (Sino …). Put plainly: BLI (Octet QKe), biotinylated human CD93 on streptavidin biosensors. As to the method:
The binding affinity of anti-CD93 antibodies were determined with bio-layer interferometry using Octet QKe (Fortebio). Human CD93 recombinant protein (Sino Biological Inc, Catalog #12589-H08H) or cynomolgus CD93 protein (made in-house) were biotinylated using EZ-LINK NHS-PEG4 biotin (Thermo Fisher Scientific). Streptavidin biosensors (Fortebio) were used to load biotinylated CD93 protein (300 seconds in 5 μg/ml). The baseline was stabilized for 60 seconds in 1× kinetics buffer (Fortebio) before anti-CD93 antibodies at a serial dilution were allowed to associate for 300 seconds with captured protein. Then the sensors were dissociated in 1× kinetics buffer for 600 seconds.
For the molecule B1, the binding result is “binds”.
Still for that read-out and setting: next, B2: “binds”; B3: “binds”.
The same measure, in the same setting: the same measure for B4: “binds”; for B5: “binds”; for B6: “binds”.
The same measure, in the same setting: next, B7: “binds”; B8: “binds”; B9: “binds”.

A further assay concerns the target T1, Human CD93 on cells (human CD93 …). The assay is described as follows: flow cytometry, CHO cells overexpressing human CD93, antibody 0.01ug, mIgG1 as control, APC-A.
As to B10, the “M2 gate, % of cells” value turned out to be 99%.
With B11, the “M2 gate, % of cells” value was 99.5%.
As to B12, the “M2 gate, % of cells” value was 99.2%.
For B13, the “M2 gate, % of cells” value was determined as 92.1%.

For the next assay the target is unchanged. The description is as above. This is another data set of the same source.
Take B14: the “M2 gate, % of cells” value came out at 99.2%.
On the same count and under the same terms, the same measure for B15: 98.2%.
